# T1: recombinant human IL-1α (human, UniProt P01583 113-271)
# T1 sequence (looked up): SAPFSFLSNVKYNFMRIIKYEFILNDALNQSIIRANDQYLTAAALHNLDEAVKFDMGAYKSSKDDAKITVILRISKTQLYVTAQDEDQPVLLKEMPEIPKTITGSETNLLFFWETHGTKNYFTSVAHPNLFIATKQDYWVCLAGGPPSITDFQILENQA
# T2: human IL-12 (human, UniProt P29459 23-219; P29460 23-328)
# T2 construct: also called hIL-12
# T2 sequence (looked up) 1: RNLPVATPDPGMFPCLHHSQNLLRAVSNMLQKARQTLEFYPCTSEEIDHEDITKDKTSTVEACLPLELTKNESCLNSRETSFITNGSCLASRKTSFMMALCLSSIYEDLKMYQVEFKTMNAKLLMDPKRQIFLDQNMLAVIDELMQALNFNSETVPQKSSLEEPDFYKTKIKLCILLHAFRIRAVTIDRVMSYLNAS
# T2 sequence (looked up) 2: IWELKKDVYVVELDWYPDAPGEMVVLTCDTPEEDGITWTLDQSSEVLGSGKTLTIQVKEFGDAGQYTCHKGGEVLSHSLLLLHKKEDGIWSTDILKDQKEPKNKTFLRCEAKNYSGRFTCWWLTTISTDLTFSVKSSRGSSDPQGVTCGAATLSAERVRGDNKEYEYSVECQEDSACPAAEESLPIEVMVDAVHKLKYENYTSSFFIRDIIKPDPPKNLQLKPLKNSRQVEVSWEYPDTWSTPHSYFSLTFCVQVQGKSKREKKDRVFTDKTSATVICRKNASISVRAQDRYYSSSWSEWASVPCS
# T3: mouse IL-1α (mouse, UniProt P01582 115-270)
# T3 sequence (looked up): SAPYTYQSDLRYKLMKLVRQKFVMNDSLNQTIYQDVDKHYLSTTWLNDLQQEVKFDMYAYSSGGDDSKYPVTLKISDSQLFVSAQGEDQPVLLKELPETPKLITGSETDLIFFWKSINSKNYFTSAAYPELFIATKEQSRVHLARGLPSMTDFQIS
# Legend:
# [1] = molecular target: T1, recombinant human IL-1α; test: cell-based or functional assay
# [2] = molecular target: T4, recombinant human IL-1β (human, UniProt P01584 117-269); test: cell-based or functional assay
# [3] = molecular target: T1, recombinant human IL-1α; test: SPR (Biacore)
# [4] = molecular target: T4, recombinant human IL-1β; test: SPR (Biacore)
# [5] = molecular target: T4, recombinant human IL-1β; test: cell-based or functional assay; remark: listed apart in the source
# [6] = molecular target: T2, human IL-12; test: SPR (Biacore)
# [7] = molecular target: T5, human IL-18 (human, UniProt Q14116 37-193); test: SPR (Biacore)
# T5 construct: also called hIL-18
# [8] = molecular target: T2, human IL-12; test: cell-based or functional assay
# [9] = molecular target: T5, human IL-18; test: cell-based or functional assay
# [10] = molecular target: T1, recombinant human IL-1α; test: cell-based or functional assay; remark: listed apart in the source
# [11] = molecular target: T3, mouse IL-1α; test: cell-based or functional assay
# [12] = molecular target: mouse IL-1β (mouse, UniProt P10749 118-269); test: cell-based or functional assay
# Sequence of mouse IL-1β (P10749 118-269 limits assumed): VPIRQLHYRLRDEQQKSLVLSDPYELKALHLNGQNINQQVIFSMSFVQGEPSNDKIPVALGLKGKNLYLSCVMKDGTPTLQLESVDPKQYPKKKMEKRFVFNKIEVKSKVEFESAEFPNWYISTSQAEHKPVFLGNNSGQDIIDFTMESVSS
binder,measurement,setting,value
"hIL-1α/bDVD6a-Ig (bispecific antibody, human IgG1, kappa, 6H3.1A4.3E11 - long linker - 6B12.4F6 - C (a-b-C); also called hIL-1a/b DVD6a-Ig) heavy: not shown light: QIVLTQSPALMSASPGEKVTMTCSASSSVNYMYWYQQKPRSSPKPWIYLTSNLASGVPARFSGSGSGTSYSLTISSMEAEDAATYYCQQWNSNPYTFGGGTKLEMKRTVAAPSVFIFPPQIVLTQSPAIMSASPGEKVTITCSASSSVSYMHWFQQKPGASPKLWIYSTSNLASGVPARFSGSGSGTSYSLTVSRMEAEDAATYYCQQRSTYPYTFGGGTKLEIKRTVAAPSVFIFPPSDEQLKSGTASVVCLLNNFYPREAKVQWKVDNALQSGNSQESVTEQDSKDSTYSLSSTLTLSKADYEKHKVYACEVTHQGLSSPVTKSFNRGEC","Potency (IC50) M, MRC-5 bioassay",[1],2.3 nM
same,"Potency (IC50) M, MRC-5 bioassay",[2],70 nM
same,Kd,[3],1.06 nM
same,Kd,[4],2.09 nM
"murine monoclonal antibody 13F5.G5 (anti-hIL-1β) (antibody, V domains shown) VH: QVQLQQSGAELVRPGSSVKISCKASGYAFSSYWMNWVKQRPGQGLEWIGQIYPGDGDTNYNGKFKGKATLTADKSSSTSYMQLSGLTSEDSAMYFCVRFPTGNDYYAMDYWGQGTSVTVSS VL: NIVLTQSPASLAVSLGQRATISCRASESVDSYGNSYMHWYQQKPGQPPKLLIYLASNLESGVPARFSGSGSRTDFTLTIDPVEADDAATYYCQQNNEDPFTFGSGTKLEIKR","IC50 (M), MRC-5 bioassay (IL-8 production)",[5],6e-10 M
"DVD1812LL (anti-IL12/IL18 DVD-Ig, 18-12-C, long linker) (bispecific antibody, human IgG1, kappa, also called DVD1812HC-LL / DVD1812LC-LL) heavy: not shown light: EIVMTQSPATLSVSPGERATLSCRASESISSNLAWYQQKPGQAPRLFIYTASTRATDIPARFSGSGSGTEFTLTISSLQSEDFAVYYCQQYNNWPSITFGQGTRLEIKRTVAAPSVFIFPPQSVLTQPPSVSGAPGQRVTISCSGSRSNIGSNTVKWYQQLPGTAPKLLIYYNDQRPSGVPDRFSGSKSGTSASLAITGLQAEDEADYYCQSYDRYTHPALLFGTGTKVTVLGTVAAPSVFIFPPSDEQLKSGTASVVCLLNNFYPREAKVQWKVDNALQSGNSQESVTEQDSKDSTYSLSSTLTLSKADYEKHKVYACEVTHQGLSSPVTKSFNRGEC",Kd,[6],0.113 nM
same,Kd,[7],0.162 nM
same,"Potency (IC50, M), IL-12-induced IFN-γ production by PHA blast cells",[8],1.18e-10 M
same,"Potency (IC50, M), KG-1 bioassay (IFN-γ production)",[9],7.8e-11 M
"murine monoclonal antibody 6B12.4F6 (anti-hIL-1β) (antibody, V domains shown) VH: EVQLQQSGPELVKTGTSVKISCKASGYSFTGYYMHWVRQSHGKSLEWIGYISCYNGFTSYNPKFKGKATFTVDTSSSTAYIQFSRLTSEDSAVYYCARSDYYGTNDYWGQGTTLTVSS VL: QIVLTQSPAIMSASPGEKVTITCSASSSVSYMHWFQQKPGASPKLWIYSTSNLASGVPARFSGSGSGTSYSLTVSRMEAEDAATYYCQQRSTYPYTFGGGTKLEIKR","IC50 (M), MRC-5 bioassay (IL-8 production)",[5],3.2e-10 M
"murine monoclonal antibody 1B12.4H4 (anti-hIL-1β) (antibody, V domains shown) VH: QVHLKESGPGLVAPSQSLSITCTVSGFSLTDYGVSWIRQPPGKGLEWLGLIWGGGDTYYNSPLKSRLSIRKDNSKSQVFLKMNSLQTDDTAVYYCAKQRTLWGYDLYGMDYWGQGTSVTVSS VL: ETTVTQSPASLSMAIGEKVTIRCITSTDIDVDMNWYQQKPGEPPKLLISQGNTLRPGVPSRFSSSGSGTDFVFIIENMLSEDVADYYCLQSDNLPLTFGAGTKLELKR","IC50 (M), MRC-5 bioassay (IL-8 production)",[5],5.3e-10 M
"hIL-1α/bDVD3a-Ig (bispecific antibody, human IgG1, kappa, 18F4.2C8 - short linker - 1B12.4H4 - C (a-b-C); also called hIL-1a/b DVD3a-Ig) heavy: not shown light: DIVMTQSQRFMSTSVGDRVSVTCKASQNVGTNIAWYQQKPGQSPRALIYSASYRYSGVPDRFTGSGSGTDFTLTISNVQSVDLAEYFCQQYTRYPLTFGGGTKLEIKRTVAAPETTVTQSPASLSMAIGEKVTIRCITSTDIDVDMNWYQQKPGEPPKLLISQGNTLRPGVPSRFSSSGSGTDFVFIIENMLSEDVADYYCLQSDNLPLTFGAGTKLELKRTVAAPSVFIFPPSDEQLKSGTASVVCLLNNFYPREAKVQWKVDNALQSGNSQESVTEQDSKDSTYSLSSTLTLSKADYEKHKVYACEVTHQGLSSPVTKSFNRGEC","Potency (IC50) M, MRC-5 bioassay",[1],0.75 nM
same,Kd,[3],0.837 nM
same,Kd,[4],63.7 nM
"murine monoclonal antibody 6H3.1A4.3E11 (anti-hIL-1α) (antibody, V domains shown) VH: QVQLQQPGAELVRPGASVKLSCKASGYTFTTYWMNWVKQRPEQGLEWIGRIDPYDSETLYSQKFKDTAILTVDKSSSTAYMQLSSLTSEDSAVYYCARYGFDYWGQGTTLTVSS VL: QIVLTQSPALMSASPGEKVTMTCSASSSVNYMYWYQQKPRSSPKPWIYLTSNLASGVPARFSGSGSGTSYSLTISSMEAEDAATYYCQQWNSNPYTFGGGTKLEMKR","IC50 (M), MRC-5 bioassay (IL-8 production)",[10],2.4e-10 M
"murine monoclonal antibody 3D12.E3 (anti-hIL-1α) (antibody, V domains shown) VH: QIQLVQSGPELKKPGETVKISCKASGYTFRNYGMNWVKQAPGKDLKRMAWINTYTGESTYADDFKGRFAFSLETSASTAYLQINNLKNEDTATYFCARGIYYYGSSYAMDYWGQGTSVTVSS VL: NIQMTQTTSSLSASLGDRVTISCRASQDISNCLNWYQQKPDGTVKLLIYYTSRLHSGVPSRFSGSGSGTDYSLTISNLEQEDIATYFCQQGKTLPYAFGGGTKLEINR","IC50 (M), MRC-5 bioassay (IL-8 production)",[10],6.7e-10 M
"DVD1812SL (anti-IL12/IL18 DVD-Ig, 18-12-C, short linker) (bispecific antibody, human IgG1, kappa, also called DVD1812HC-SL / DVD1812LC-SL) heavy: not shown light: EIVMTQSPATLSVSPGERATLSCRASESISSNLAWYQQKPGQAPRLFIYTASTRATDIPARFSGSGSGTEFTLTISSLQSEDFAVYYCQQYNNWPSITFGQGTRLEIKRTVAAPQSVLTQPPSVSGAPGQRVTISCSGSRSNIGSNTVKWYQQLPGTAPKLLIYYNDQRPSGVPDRFSGSKSGTSASLAITGLQAEDEADYYCQSYDRYTHPALLFGTGTKVTVLGTVAAPSVFIFPPSDEQLKSGTASVVCLLNNFYPREAKVQWKVDNALQSGNSQESVTEQDSKDSTYSLSSTLTLSKADYEKHKVYACEVTHQGLSSPVTKSFNRGEC",Kd,[6],1.82 nM
same,Kd,[7],0.191 nM
same,"Potency (IC50, M), IL-12-induced IFN-γ production by PHA blast cells",[8],3.66e-10 M
same,"Potency (IC50, M), KG-1 bioassay (IFN-γ production)",[9],4e-11 M
"murine monoclonal antibody 18F4.2C8 (anti-hIL-1α) (antibody, V domains shown) VH: EVQLQQSGAELVKPGASVKLSCTASGLNIKDTYMHWLKQRPEQGLEWIGRIDPANGNAKYDPRFLGKATITADTSSNTAYLQLSSLTSEDTAVYYCARGDGNFHFDYWGQGTTLTVSS VL: DIVMTQSQRFMSTSVGDRVSVTCKASQNVGTNIAWYQQKPGQSPRALIYSASYRYSGVPDRFTGSGSGTDFTLTISNVQSVDLAEYFCQQYTRYPLTFGGGTKLEIKR","IC50 (M), MRC-5 bioassay (IL-8 production)",[10],8.9e-11 M
"mouse anti-mouse IL-1α mAb clone 9H10 (antibody, V domains shown) VH: QVILKESGPGILQPSQTLSLTCSFSGFSLSTYGTAVNWIRQPSGKGLEWLAQIGSDDRKLYNPFLKSRITLSEDTSNSQVFLKITSVDTEDSATYYCANGVMEYWGLGTSVTVSS VL: SIVMTQTPKFLLVSAGDRVTITCKASQSVNHDVAWYQQMPGQSPKLLIYFASNRYTGVPDRFTGSGYGTDFTFTISTVQAEDLAVYFCQQDYSSPYTFGGGTKLEIKR","IC50 (M), in vitro potency (assay not described)",[11],2e-10 M
"hIL-1α/bDVD6b-Ig (bispecific antibody, human IgG1, kappa, 6B12.4F6 - long linker - 6H3.1A4.3E11 - C (b-a-C); also called hIL-1a/b DVD6b-Ig) heavy: not shown light: QIVLTQSPAIMSASPGEKVTITCSASSSVSYMHWFQQKPGASPKLWIYSTSNLASGVPARFSGSGSGTSYSLTVSRMEAEDAATYYCQQRSTYPYTFGGGTKLEIKRTVAAPSVFIFPPQIVLTQSPALMSASPGEKVTMTCSASSSVNYMYWYQQKPRSSPKPWIYLTSNLASGVPARFSGSGSGTSYSLTISSMEAEDAATYYCQQWNSNPYTFGGGTKLEMKRTVAAPSVFIFPPSDEQLKSGTASVVCLLNNFYPREAKVQWKVDNALQSGNSQESVTEQDSKDSTYSLSSTLTLSKADYEKHKVYACEVTHQGLSSPVTKSFNRGEC","Potency (IC50) M, MRC-5 bioassay",[1],1 nM
same,"Potency (IC50) M, MRC-5 bioassay",[2],0.75 nM
same,Kd,[3],0.82 nM
same,Kd,[4],0.697 nM
"mouse anti-mouse IL-1β mAb clone 10G11 (antibody, V domains shown) VH: EVQLQQSGPELVKPGTSVKMSCKTSGYTFTSYVMHWVKQKPGQGLEWIGYIIPYNDNTKYNEKFKGKATLTSDKSSSTAYMELSSLTSEDSAVYYCARRNEYYGSSFFDYWGQGTTLTVSS VL: DIQMTQSPASLSASVGETVTITCRGSGILHNYLVWYQQKQGKSPQLLVYSAKILADGVPSRFSGSGSGTQYSLKINSLQPEDFGSYYCQHFWSTPFTFGSGTKLEIKR","IC50 (M), in vitro potency (assay not described)",[12],3.7e-10 M

# Reference: patent publication US20140154256A1 (published 2014)
